Laboratory results from publication PMC5330279.

Columns and labels:
[1] = target: hCRBPII Q108K:K40L:Y60W (human); test: SEC

Row | percent dimer (hCRBPII E72A (human)) [%] | stoichiometry N [1] | Substance
1 | 50 | – | hCRBPII E72A (natural protein)
2 | – | 2 | hCRBPII Q108K:K40L:Y60W (natural protein)
